Experimental data published in patent publication US20070167369A1, “Novel use of isolated polypeptide comprising four FAS-1 domains, EM1 domain and RGD motif” (KYUNGPOOK NATIONAL UNIVERSITY INDUSTRY-ACADEMIC COOPERATION …, priority 2004, published 2007).

What was measured:
HUVECs [1] = assay: Inhibition of βig-h3-mediated endothelial cell adhesion (Example 4-1); assay type: cell-based, human
Protocol: HUVECs were suspended in medium at a density of 3×10^5 cells/ml, and 0.1 ml of the cell suspension was added with the fourth fas-1 domain of βig-h3 (βig-h3 D-IV) prepared in Example 1, at concentrations of 5 μM, 10 μM and 20 μM, respectively, and preincubated at 37° C. for 30 minutes. The preincubated cells were added to each well of the 96-well plate precoated with a recombinant βig-h3 His-1-b protein. Then, the cells were tested in the same manner as in Example 2. A control was treated with 2% BSA.

melanoma cells (B16F10) = assay: Proliferation of fas-1-overexpressing melanoma cells, MTT (Example 10-1); assay type: cell-based, murine; conditions: fas-1 domain overexpressed (fas-1/B16F10) vs pLNCX/B16F10, 48-72 hours
Protocol: cDNA (SEQ ID NO: 65) encoding the fourth fas-1 domain of βig-h3 was cloned into the EcoRI/XhoI sites of a pLNCX retrovirus vector (Clontech Lab. Inc., USA). The resulting recombinant retrovirus vector was named “fas-1/pLNCX”. Packaging cell PT67 (Clontech Lab. Inc., USA) were transfected with the fas-1/pLNCX vector using lipofectamine. The transformed cells were incubated at 37° C. for 48 hours. After completion of the incubation, virus particles present in the culture medium were collected, and filtered one time through a 0.45-μm filter. The filtered virus particles were added to a culture medium of melanoma cells (B16F10), and then allowed to react at 37° C. for 6 hours. The culture medium was replaced with fresh medium, and the transfected cells were screened several times in the presence of 1 mg/ml of G418. Western blot analysis using a βig-h3 antibody was performed to confirm that the fas-1 domain is overexpressed in the screened transfected cells. As a result, fas-1-overexpressing melanoma cells (hereinafter, referred to as “fas-1/B16F10”) were prepared. […]
Each of the fas-1-overexpressing melanoma cells (fas-1/B16F10) and the control cells (pLNCX/B16F10) was suspended in medium at a density of 3×10^4 cells/ml, and 0.1 ml of the cell suspension was added to each well of a 96-well plate. […] Thereafter, the absorbance was measured at 570 nm in a Bio-Rad model 550 microplate reader.

HUVECs [2] = assay: Endothelial cell adhesion to plates coated with βig-h3 or its fas-1 domains (Example 2); assay type: cell-based, human; conditions: plate coated with 10 μg/ml protein; absorbance 405 nm
Protocol: Cell adhesion assay was performed according to the method described by Kim, J.-E. et al., J. Biol. Chem., 277:46159-46165, 2002. For this purpose, 10 μg/ml of each of the recombinant proteins (βig-h3 His-1-b, βig-h3 D-I, βig-h3 D-II, βig-h3 D-III and βig-h3 D-IV) prepared in Example 1 was placed into a flat-bottomed 96-well ELISA (enzyme-linked immunosorbent assay) plate (Costar, Corning Inc., NY) and then incubated overnight at 4° C., to coat the surface of the plate. As a control, 2% BSA was coated on the plate. Then, the plate was treated with PBS (phosphate-buffered saline) containing 2% BSA, and blocked at room temperature for one hour.
Meanwhile, HUVECs (human umbilical vein endothelial cells; Clonetics, San Diego, Calif.) were incubated in EGM medium (Clonetics, San Diego, Calif.) containing 2% FBS (Fetal Bovine Serum) under a condition of 37° C. and 5% CO2. The incubated cells were suspended in medium at a density of 3×10^5 cells/ml, and 0.1 ml of the cell suspension was added to each well of the plate. Next, the cells were incubated at 37° C. for 30 minutes and washed one time with PBS buffer to remove cells which had not been attached to the plate. […] The absorbance was measured at a 405-nm in a Bio-Rad model 550 microplate reader. Here, the higher the number of cells adhered to the plate, the higher the absorbance.

HUVECs [3] = assay: Binding of biotin-βig-h3 to HUVECs, Western immuno-blotting (Example 3-4); set-up: species or system human; conditions: biotinylated βig-h3
Protocol: To confirm that HUVECs adhesion that is mediated by βig-h3 depends on αvβ3 integrin, the present inventors tested the binding affinity of βig-h3 in the presence of an antibody that specifically blocks the function of the integrin. This binding assay was performed according to the method described by Maile, L. A., et al., J. Biol. Chem., […].
First, HUVECs were suspended in medium at a density of 1×10^5 cells/ml. 1 ml of the cell suspension was preincubated with anti-[…] antibody (LM609) or anti-αvβ5 antibody (P1F6) at 37° C. for 30 minutes. Thereafter, the preincubated cells were incubated with biotinylated βig-h3 (hereinafter, referred to as “biotin-βig-h3”) in a serum-free medium containing 0.1% BSA at 4° C. for 5 hours. The biotin-βig-h3 was added at concentrations of […], respectively. Then, the cells were washed three times with PBS buffer (pH 7.4), and dissolved at 4° C. in ice-cold buffer A (10 mM Tris-Cl, pH 7.4, 150 mM NaCl, 1% Nonidet P-40, 1% sodium deoxycholate, 0.5% SDS, 0.02% sodium azide, 1 mM EDTA, 1 mM phenylmethylsulfonyl fluoride). The cell lysates were clarified by centrifugation at 13,000 rpm for 30 minutes at 4° C. Equal amounts of protein were then separated by SDS-PAGE, 8% gel. The amount of biotin-βig-h3 was determined by Western immuno-blotting. […]

Molecule | inhibition of βig-h3-mediated adhesion of endothelial cells (HUVECs [1]; 5 μM) | inhibitory effect of endothelial cell adhesion compared with YH motif-containing peptide fragment of 18 amino acids (HUVECs [1]; 20 μM fas-1 domain vs 1,000 μM YH peptide) | inhibition of βig-h3-mediated adhesion of endothelial cells (HUVECs [1]; 5, 10 and 20 μM) | effect on proliferation of melanoma cells (melanoma cells (B16F10)) | adhesion of endothelial cells to coated protein (HUVECs [2]) | binding to HUVECs surface (HUVECs [3])
fas-1 domain: recombinant protein containing the fourth fas-1 domain of human βig-h3 (SEQ ID NO: 64) (protein, listed as Homo sapiens) MGTVMDVLKGDNRFSMLVAAIQSAGLTETLNREGVYTVFAPTNEAFRALPPRERSRLLGDAKELANILKYHIGDEILVSGGIGALVRLKSLQGDKLEVSLKNNVVSVNKEPVAEPDIMATNGVVHVITNVL | inhibited | higher | inhibited in a dose-dependent manner | no effect on the proliferation of melanoma cells | – | –
truncated βig-h3: recombinant human βig-h3 with EMI domain, all four fas-1 domains and RGD motif; residues 68-653 of SEQ ID NO: 1 (SEQ ID NO: 66) (protein, listed as Homo sapiens) WYQRKICGKSTVISYECCPGYEKVPGEKGCPAALPLSNLYETLGVVGSTTTQLYTDRTEKLRPEMEGPGSFTIFAPSNEAWASLPAEVLDSLVSNVNIELLNALRYHMVGRRVLTDELKHGMTLTSMYQNSNIQIHHYPNGIVTVNCARLLKADHHATNGVVHLIDKVISTITNNIQQIIEIEDTFETLRAAVAASGLNTMLEGNGQYTLLAPTNEAFEKIPSETLNRILGDPEALRDLLNNHILKSAMCAEAIVAGLSVETLEGTTLEVGCSGDMLTINGKAIISNKDILATNGVIHYIDELLIPDSAKTLFELAAESDVSTAIDLFRQAGLGNHLSGSERLTLLAPLNSVFKDGTPPIDAHTRNLLRNHIIKDQLASKYLYHGQTLETLGGKKLRVFVYRNSLCIENSCIAAHDKRGRYGTLFTMDRVLTPPMGTVMDVLKGDNRFSMLVAAIQSAGLTETLNREGVYTVFAPTNEAFRALPPRERSRLLGDAKELANILKYHIGDEILVSGGIGALVRLKSLQGDKLEVSLKNNVVSVNKEPVAEPDIMATNGVVHVITNVLQPPANRPQERGDELADSALEI | – | – | – | – | mediated the adhesion of endothelial cells | bound to HUVECs surface in a dose-dependent manner
